Assay results: patent US7189832 (University of California, dated 2007)

B1: recombinant ΔC-IKK-γ (1-300) (other, not shown: small tags and cut ends)
chain: MNRHLWKSQLCEMVQPSGGPAADQDVLGEESPLGKPAMLHLPSEQGAPETLQRCLEENQELRDAIRQSNQILRERCEELLHFQASQREEKEFLMCKFQEARKLVERLGLEKLDLKRQKEQALREVEHLKRCQQQMAEDKASVKAQVTSLLGELQESQSRLEAATKECQALEGRARAASEQARQLESEREALQQQHSVQVDQLRMQGQSVEAALRMERQAASEEKRKLAQLQVAYHQLFQEYDNHIKSSVVGSERKRGMQLEDLKQQLQQAEEALVAKQEVIDKLKEEAEQHKIVMETVPV
notes: also called C-terminal truncation
B2: recombinant ΔN-IKK-γ (134-419) (other, not shown: small tags and cut ends)
chain: QMAEDKASVKAQVTSLLGELQESQSRLEAATKECQALEGRARAASEQARQLESEREALQQQHSVQVDQLRMQGQSVEAALRMERQAASEEKRKLAQLQVAYHQLFQEYDNHIKSSVVGSERKRGMQLEDLKQQLQQAEEALVAKQEVIDKLKEEAEQHKIVMETVPVLKAQADIYKADFQAERQAREKLAEKKELLQEQLEQLQREYSKLKASCQESARIEDMRKRHVEVSQAPLPPAPAYLSSPLALPSQRRSPPEEPPDFCCPKCQYQAPDMDTLQIHVMECIE
notes: also called N-terminal truncation

Molecular target: the molecule itself
Test: EGS crosslinking of recombinant protein, SDS-PAGE, immunoblot

| Protein | binding result |
| --- | --- |
| B1 | binds |
| B2 | binds |
